Reference: the supplement of paper PMC10126150
± gives the standard deviation of the averaged measurements.
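Note: ATP exposure 15 min at 22 °C before imaging.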

The sequences below were run on ATP (assay: switch fluorescence ratio, 500 uM ATP over buffer (Cy3 cluster intensity, sum of 5 cycles each) (fold (ratio)); higher = stronger signal-on switching upon ATP binding; sequences stand for … in TCGTCGGCAGCGTCAGATGTGTATAAGAGACAGTTTTTTTTTTTTTTTTTTTTTTTTT…TC). Details: aptamer strand: ATP DNA aptamer (quencher-CACCTGGGGGAGTATTGCGGAGGAAGG + anchor), 100 nM annealed; ATP concentration: 500 uM.
Summary of the method: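 Imaging in selection buffer was followed by imaging after 15 min with 500 uM ATP at 22 °C, for Cy3-labelled switching-strand clusters annealed to 100 nM quencher-labelled ATP aptamer on a modified Illumina MiSeq flow-cell. Five of these buffer/ATP cycles ran, separated by NaOH stripping and re-annealing. The fluorescence ratio per cluster is summed target-cycle over summed buffer-cycle Cy3 intensity, averaged per switch-domain sequence; clusters outside 100-1000 RFU were removed.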
GCTGTGGGGG gave a switch fluorescence ratio of 0.966 ± 0.013.
AAAAATATGA gave a switch fluorescence ratio of 1.01 ± 0.053.
For AGGAGAATGT, the switch fluorescence ratio was 1.02 ± 0.011.
CGGGGGGATG was tested, and the switch fluorescence ratio was 1.01 ± 0.033.
AGAGTATCTA showed a switch fluorescence ratio of 0.962 ± 0.048.
CTATTTAGAT was tested, and the switch fluorescence ratio was 0.984 ± 0.011.
In the case of CACGAGGAGG, the switch fluorescence ratio is reported as 0.9809 ± 0.0055.
For GTTATGGGTG, the switch fluorescence ratio was 0.983 ± 0.029.
With GATAAGGGTG the switch fluorescence ratio was 1.07 ± 0.0053.
With AACTCACGGG the switch fluorescence ratio was 1.63 ± 0.083.
With TTATTGGCTT the switch fluorescence ratio was 0.9895 ± 0.0037.
ATTTAAGGGA was tested, and the switch fluorescence ratio was 0.982 ± 0.026.
AATGCGTGCG gave a switch fluorescence ratio of 1.04 ± 0.023.
With TTATTCTCGG the switch fluorescence ratio was 1.04 ± 0.068.
In the case of TTTGGTGGAT, the switch fluorescence ratio is reported as 0.9794 ± 0.0058.
In the case of AGGGATCGGG, the switch fluorescence ratio is reported as 1.002 ± 0.01.
TCGTTATGT was tested, and the switch fluorescence ratio was 0.97732 ± 9.1e-05.
With TTTTGTGGGG the switch fluorescence ratio was 0.999 ± 0.037.
Sequence TCTTGATTTT has a switch fluorescence ratio of 1 ± 0.011.
GGAAGTATTA showed a switch fluorescence ratio of 0.966 ± 0.017.
TTATTGAAGC showed a switch fluorescence ratio of 0.983 ± 0.028.
In the case of TGAGTCATAC, the switch fluorescence ratio is reported as 1.05 ± 0.033.
TCAAATTGCC was tested, and the switch fluorescence ratio was 0.982 ± 0.016.
Sequence GGGGAAGCGG has a switch fluorescence ratio of 0.991 ± 0.056.
TTTCGATGTT was tested, and the switch fluorescence ratio was 0.95 ± 0.051.
Sequence TTTTTAGTCG has a switch fluorescence ratio of 1 ± 0.036.
AATTTATTTG was tested, and the switch fluorescence ratio was 1.01 ± 0.037.
Work on TTTGTCTTTT yielded a switch fluorescence ratio of 1.02 ± 0.045.
TGAATGGGGC was tested, and the switch fluorescence ratio was 0.953 ± 0.042.
Work on GGGGTAGTG yielded a switch fluorescence ratio of 1.03 ± 0.067.
GGGAAAAAAG gave a switch fluorescence ratio of 0.994 ± 0.026.
TCTTGGGTTG showed a switch fluorescence ratio of 0.986 ± 0.029.
With CCTTGGATTG the switch fluorescence ratio was 0.9851 ± 0.0018.
For GACCATGAAA, the switch fluorescence ratio was 0.96295 ± 0.0008.
Sequence AGGGTAGAGC has a switch fluorescence ratio of 1.09 ± 0.15.
In the case of AGGGGTTTCG, the switch fluorescence ratio is reported as 0.994 ± 0.025.
TGAGCCGGGT showed a switch fluorescence ratio of 1.02 ± 0.033.
In the case of ATACTGGAAA, the switch fluorescence ratio is reported as 1.011 ± 0.01.
Sequence CTGGGGTTTT has a switch fluorescence ratio of 0.991 ± 0.032.
In the case of GGGTTTAAGT, the switch fluorescence ratio is reported as 0.986 ± 0.023.
Work on TGGAGGTGTG yielded a switch fluorescence ratio of 0.977 ± 0.01.
Work on GGTTTTGCTT yielded a switch fluorescence ratio of 0.96 ± 0.034.
With TTTCCGTTGA the switch fluorescence ratio was 1.23 ± 0.32.
For CGGCTAAGGG, the switch fluorescence ratio was 0.981 ± 0.014.
For GAATTCTCCG, the switch fluorescence ratio was 1.18 ± 0.012.
TGAGTCGAGC gave a switch fluorescence ratio of 1.014 ± 0.0066.
Sequence TGACCTCGTG has a switch fluorescence ratio of 0.995 ± 0.039.
GATTTATGAG gave a switch fluorescence ratio of 0.9668 ± 0.0067.
CTAATTTTTG was tested, and the switch fluorescence ratio was 1 ± 0.024.
For GAGCGCCCGT, the switch fluorescence ratio was 1.01 ± 0.0017.
With GGGAATTTTT the switch fluorescence ratio was 1 ± 0.053.
TAAATCCGGT showed a switch fluorescence ratio of 0.997 ± 0.041.
With TGGCGGTACG the switch fluorescence ratio was 1.02 ± 0.069.
TTAGGCCGGA was tested, and the switch fluorescence ratio was 1.04 ± 0.075.
GGGGACAATG gave a switch fluorescence ratio of 1.02 ± 0.044.
ATGTGAATTG showed a switch fluorescence ratio of 1.01 ± 0.019.
For CGGCAATCCT, the switch fluorescence ratio was 3.99 ± 0.15.
Sequence TAATGGTTTG has a switch fluorescence ratio of 1.08 ± 0.12.
For AGCTTAAGGA, the switch fluorescence ratio was 1.03 ± 0.035.
GCCTGGGTTC was tested, and the switch fluorescence ratio was 0.985 ± 0.02.
Work on CACAAGCGAT yielded a switch fluorescence ratio of 1.42 ± 0.063.
In the case of GGTAGTGGGA, the switch fluorescence ratio is reported as 1 ± 0.046.
With AGTCTTCTGG the switch fluorescence ratio was 1.01 ± 0.026.
GATTCAGACA gave a switch fluorescence ratio of 0.963 ± 0.015.
TCACGCAGGG showed a switch fluorescence ratio of 1.03 ± 0.023.
For GTCGTATTTG, the switch fluorescence ratio was 0.9822 ± 0.0057.
For GTTAAAACTT, the switch fluorescence ratio was 1.005 ± 0.0097.
TTTATAAGGT gave a switch fluorescence ratio of 0.988 ± 0.012.
In the case of GCTGATGCGT, the switch fluorescence ratio is reported as 1.01 ± 0.038.
Work on TTCTGGATTA yielded a switch fluorescence ratio of 0.994 ± 0.036.
With AGTTTGGCGG the switch fluorescence ratio was 0.923 ± 0.084.
CAGTTTTTAT showed a switch fluorescence ratio of 1.01 ± 0.026.
In the case of TGGGTTGGTT, the switch fluorescence ratio is reported as 1 ± 0.036.
For CCAGTGGCGA, the switch fluorescence ratio was 1.16 ± 0.039.
In the case of ACTAAGGGGT, the switch fluorescence ratio is reported as 1.05 ± 0.016.
GAGGTATTTG showed a switch fluorescence ratio of 1.02 ± 0.037.
With TACGTTAGTA the switch fluorescence ratio was 1.02 ± 0.033.
In the case of TTATAGGGTT, the switch fluorescence ratio is reported as 0.991 ± 0.041.
TGGGGACTAT showed a switch fluorescence ratio of 1.02 ± 0.012.
AAACTGGGGC gave a switch fluorescence ratio of 1.12 ± 0.022.
TACTTGAATT showed a switch fluorescence ratio of 1.02 ± 0.018.
In the case of ATCGGAGCGG, the switch fluorescence ratio is reported as 1.02 ± 0.031.
CATGGGCTGG was tested, and the switch fluorescence ratio was 0.9965 ± 0.001.
Work on ATAGGGCACA yielded a switch fluorescence ratio of 1.08 ± 0.015.
Work on AAGATATGGC yielded a switch fluorescence ratio of 1.02 ± 0.047.
